From US20200223906A1 (Adimab, published 2020)
Where a chain is given by its changes, count along the chain named.

B1: ADI-18900 (antibody, V domains shown)
VH: EVQLLESGGALVEPGGSLRLSCAASGFSFNTYSMNWVRQGPGKGLEWVATISTSTAGSYYADSVRGRFTISRDNSKNTLYLQMNSLRVEDTAVYYCARDQEVELIDDAFDFWGRGTMVTVSS
VL: DIVMTQTHSSLSASVGDRVTITCRASQSISIWVAWYQQKPGKAPNLLIYKASSLQSGVPSRFSGSGSGTEFTLTISSLQPDDSATYYCQQYYTYYSFGQGTKLEIK
notes: full-length IgG from yeast
B2: ADI-18902 (antibody, V domains shown)
VH: QVQLQESGPGLVKPSETLSLTCTVSGGSISGYYWSWIRQPPGRGLEWIGFIYYSGSTSYDSSLKSRVTISVDTSKNQFSLNLSSVTAADTAVYYCARSTWDYGDHFPFDYWGQGTLVTVSS
VL: SYELTQPPSVSVAPGKTARITCGGNNIGIKDVHWYQLRPGQAPVLVISYDSDRPSGIPERFSGSNSGNTATLTISRVEAGDEADYFCQVWDSSPDHPYVFGTGTKLTVL
notes: full-length IgG from yeast
B3: ADI-18908 (antibody, V domains shown)
VH: QVQLVESGGGLVKPGGSLRLSCAASGFTFSSFGMHWVRQAPGQGLEWVASITGGSSYINYADSVKGRFTISRDNAKKSLSLQMKNLRAEDTAEYYCVRGVLPGGTGGGWFDSWGQGTLVTVSS
VL: QSVLTQPPSMSGAPGQRVTISCTGTSSNIGAGYDVQWYQQFPGTAPKLLISGNNNRPSGVPDRFSGSKSGASASLAITGLQAEDEADYYCQSYDYSLNWVFGGGTKLTVL
notes: full-length IgG from yeast
B4: ADI-18917 (antibody, V domains shown)
VH: B3 VH with Q1E, G104D
VL: B3 VL
notes: full-length IgG from yeast; also called Antibody Number 271; Ab # 271
B5: ADI-18912 (antibody, V domains shown)
VH: EVQLVESGGGLVKPGGALRLSCAASGFSFRSYSMNWVRQAPGKGLEWVSSISSSSNYINYADSVKGRFSISRDNAKNSLYLQMNSLRAEDTAVYYCARDLLPVERGPAFDIWGQGTMVTVSS
VL: SYELTQPPSVSGAPGQRVTISCTGSSSNIGAGYDVHWFQQLPGAAPKLLIYANSNRPSGVPDRFSGSKSGTSASLAITGLQAEDEADYYCQSYDSRLGGSVFGGGTKVTVL
notes: full-length IgG from yeast
B6: ADI-18913 (antibody, V domains shown)
VH: QVQLVQSGPEVKKPGESLTISCKGSGYDFSNNWIGWVRQMPGKGLEWMGIIYPGDSDTRYSPSFQGQVTLSVDKSISTAYLQWRSLKASDSGIYYCARQIGGLVCSSESCYFYGMDVWGQGTTVTVSS
VL: DIQLTQSPSSLSASVGGRVTITCRASQSISNYLNWYQHKPGKAPELLIYGASSLQSGVPSRFSGSGSGTDFTLTISSLQPEDFATYYCQQSDTTPFTFGQGTKVDIK
notes: full-length IgG from yeast
B7: ADI-18916 (antibody, V domains shown)
VH: B6 VH
VL: B6 VL with Q3R, L4V, V104L, D105E
notes: full-length IgG from yeast; also called Antibody Number 270; Ab # 270
B8: ADI-18915 (antibody, V domains shown)
VH: QVQLVQSGGGLVKPGGSLRLSCAASGFTFSKAWMNWVRQAPGKGLEWVGRIRSKTDGGTADYAAPVKGRFTMSRDDSKNTLYLQMNSLKTEDTAVYYCATDSRRLYDSRGFYSSAFDVWGQGTTVTVSS
VL: QSVLTQPPSVSGAPGQRVTISCTGSSSNIGAGYDVHWYQHLPGTAPKVLIYGNNNRPSGVPDRFSGSKSGTSASLAITGLQAEDEADYYCQSYDDSLTGWVFGGGTKVTVL
notes: full-length IgG from yeast; also called Antibody Number 269; Ab # 269
B9: ADI-18919 (antibody, V domains shown)
VH: QVQLQESGPGLEKPSQTLSLTCTVSRGSIRIGGYFWSWIRQHPGKGLEWLGYISNDGATDYNPSLRSRLAISADTSKNQFSLTLRSVTAADTAIYYCARTSYAGRMLDRWGQGILVTVSS
VL: DIRVTQSPVSLPVTPGEPASISCRSSQSLLHSNGNNYLDWYLQKPGQSPQLLIYMGSYRASGVPDRFSGSGSGTDFTLKISRVEAEDVGVYYCMQGLQIPWTFGQGTKLEIK
notes: full-length IgG from yeast
B10: ADI-18920 (antibody, V domains shown)
VH: EVQLLESGGGVVQPGRSLRLSCAASGFTFSSYAMHWVRQTPDKGLEWVALISDDGRNEYYADSVQGRFTISRDKSKNTLHLEMNSLRAEDTAVYYCAKVRNEAWELLGNDDALDVWGQGTMVTVSS
VL: QSVLTQPPSVSAAPGQKVTISCSGTSFNIGSNYVSWYQLLPGTAPKLLIFDNYKRPSGIPDRFSGSWSGTSATLAISGLQTGDEAEYFCGTWDTSLRAGVFGGGTKLTVL
notes: full-length IgG from yeast; also called Antibody Number 274; Ab # 274
B11: ADI-18923 (antibody, V domains shown)
VH: EVQLLESGGGLVKPGGSLRLSCAASGFTFSSYSMNWVRQAPGKGLEWVSSISSSSSYIYYADSVKGRFTISRDNAKNSLYLQMNSLRAEDTAVYYCARDWPNSSSSPNWFDPWGQGTLVTVSS
VL: QSVLTQPPSVSGAPGQRVTISCTGSSSNIGAGYDVHWYQQLPGTAPKLLIYGNSNRPSGVPDRFSGSKSGTSASLAITGLQAEDEADYYCQSYDSSLSGFYVFGTGTKLTVL
notes: full-length IgG from yeast
B12: ADI-18926 (antibody, V domains shown)
VH: EVQLVESGAEVKKPGASVKVSCQTSGYTFSHFGVTWIRQAPGQGLEWLGWISAYNGNTDYADKLQGRLTMTTDTSTNTAYMELRSLRSDDTAVYYCARDPPASAAAMLDYWGQGTLVTVSS
VL: DIVMTQSPLSLAVTLGQPASISCKSSQGLEYTDGNTYLSWFQQRPGQSPRRLIYKISNRDSGVPDRFSGSGSGTDFTLRISRVEAEDVGVYYCMQGTHGRGISFGPGTKVDIK
notes: full-length IgG from yeast; also called Antibody Number 280; Ab # 280
B13: ADI-18978 (antibody, V domains shown)
VH: EVQLVESGGGVVQPGRSLRLSCEASGFTFSSFSMHWVRQAPGKGLEWVAVILYDGSNQYYADSVKGRFTISRDNSKNTLYLQMNTLRAEDTAMYYCAKSSSSHVNSRQDKWGQGTLVTVSS
VL: EIVLTQSPSTLSASVGDRVTITCRASQSISRWLAWYQQKPGEAPKLLIHTASTLESGVPSRFSGSGSGTEFTLTINSLQPDDLATYYCQQYYNWWTFGQGTKVEIK
B14: ADI-18979 (antibody, V domains shown)
VH: EVQLLESGAEVKKPGASVKISCKASGYIFTSYGVSWVRQAPGQGLKWMGWISGYNGNTYYDQKFQGRVTMTTDTSTNTAYMELRSLTSDDTAVYYCARDSFSETGTGFPDFWGQGTLVTVSS
VL: EIVLTQSPLSLPVTLGQPASISCRSSQSLEYSDGNTYLNWFQQRPGQSPRRLIYKVSNRDSGVPDRFSGSGSGTDFTLKISRVEAEDVGVYYCMQATHRPRTFGQGTKVDIK
B15: ADI-18983 (antibody, V domains shown)
VH: EVQLVESGGGVVQPGRSLRLSCAASGFTFSSFSMHWVRQAPGKGLEWVALISSDERNSYYADSVKGRFTISRDNSKNTLYLQISRLKVEDTAVYYCAREAYEEWELTMGNLDHWGQGTLVTVSS
VL: DIQLTQSPSSLSASVGDRVTITCRASQGIGNDLGWYQQKPGKAPKRLIYSTYSLQSGVPSRFSGSGSGTEFTLTISSLQPEDFATYYCLQHNRYPFTFGPGTKLEIK
B16: ADI-18985 (antibody, V domains shown)
VH: QVQLVQSGPEVKKPGASVKVSCEASGYTFTDFFVHWVRQAPGEGLVWLGWVNPLSGATKYAQNFQGRVTMTSDTSITTAYMALSSLRHDDTAVYYCTSQTSPYTPGAMGVWGQGTTVTVSS
VL: DIRVTQSPASLSAFVGDRVTITCRASPAISGYLSWYQQKAGKAPKILIYDASNLYSGAPSRFSGSRSGTDFTLTITSLQPEDFATYYCQQTYNGLIAFGPGTKVEIK
B17: ADI-18986 (antibody, V domains shown)
VH: EVQLLESGGGVVQPGKSLRLSCAASGFTFNTYAIHWVRQAPGKGLEWVAAISYDGSNEYYSNSVKGRFTISRDNSKYTLELQMNSLRPEDTAVYYCARGASYYYVSSDLGYWGQGTLVTVSS
VL: QSVVTQPPSVSGAPGQRVTISCTGSSSNIGSGYDVHWYQQLPGTAPKVVIYGNINRPSGVPERFSGSKSGTSASLAITGLQAEDEADYYCQSYDSLSASWVFGGGTKLTVL
B18: ADI-18987 (antibody, V domains shown)
VH: QVQLVQSGAEVKKPGSSVKVSCKASGGTFSGHAINWVRQAPGQGLEWMGGIIHIFGTVNYAPKFQGRVTITADASTGTVYMELSSLISEDTAVYYCARDAYEVWTGSYLPPFDDWGQGTLVTVSS
VL: DIVMTQSPGTLSLSPGDRVTLSCRASQTVTSSYLAWYQQKPGQAPRLLIYGAFTRATGIPDRFSGSGSGTDFTLSISRLEPEDFAVYYCQQYGSSFLTFGGGTKVDIK

What follows are binders tested against RSV F protein of subtype B (18537) on recombinant mKate-RSV virus (Respiratory syncytial virus subtype B …, UniProt P13843 26-574) (assay: cell-based or functional assay).

Binder	Neut IC50 (µg/ml) subtype B [µg/mL]
B1	0.059
B2	0.15
B3	0.095
B4	0.091
B5	0.061
B6	< 0.01
B7	< 0.01
B8	0.021
B9	0.261
B10	0.049
B11	0.147
B12	0.092

The binders below were run against RSV F protein of subtype A (strain A2) on recombinant mKate-RSV virus (Respiratory syncytial virus subtype A …, UniProt P03420 26-574) (assay: cell-based or functional assay).

Binder	Neut IC50 (µg/ml) subtype A [µg/mL]
B1	0.035
B2	0.024
B3	0.018
B4	0.024
B5	0.024
B6	< 0.01
B7	< 0.01
B8	1.2
B9	0.123
B10	0.041
B11	0.078
B12	0.023

The binders below were run against RSV F protein of subtype A (strain A2) on recombinant mKate-RSV (respiratory syncytial virus subtype A …, UniProt P03420 26-574) (assay: cell-based or functional assay).

Binder	Neut IC50 subtype A [µg/mL]
B13	> 10
B14	0.012
B15	0.028
B16	0.034
B17	0.464
B18	0.015

These binders were tested against RSV F protein of subtype B (18537) on recombinant mKate-RSV (respiratory syncytial virus subtype B …, UniProt P13843 26-574) (assay: cell-based or functional assay).

Binder	Neut IC50 subtype B [µg/mL]
B13	> 10
B14	0.031
B15	0.075
B16	0.09
B17	0.123
B18	0.027

What follows are binders tested against T1, RSV F subtype A, furin-cleaved ectodomain stabilized in the prefusion conformation (DS-Cav1) (Respiratory syncytial virus subtype A, UniProt P03420 26-524) (assay: BLI, IgG on AHQ sensor, 100 nM antigen).
T1 construct: extracellular domain; Trimeric soluble antigen; also called Prefusion subtype A

Binder	Kd [nM]
B1	1.19
B2	0.107
B3	0.302
B4	0.356
B5	0.258
B6	0.568
B7	0.585
B8	28.1
B9	0.202
B10	0.678
B11	0.517
B12	0.252

Each binder was assayed against T2, RSV F subtype B, furin-cleaved ectodomain stabilized in the prefusion conformation (DS-Cav1) (Respiratory syncytial virus subtype B) (assay: BLI, IgG on AHQ sensor, 100 nM antigen).
T2 construct: extracellular domain; Trimeric soluble antigen; also called Prefusion subtype B

Binder	Kd [nM]
B1	0.331
B2	0.101
B3	0.352
B4	0.332
B5	0.286
B6	0.471
B7	0.465
B8	0.421
B9	0.163
B10	0.0977
B11	1.79
B12	0.25
